Results published in paper PMC2953525, “Subtle Alterations in PCNA-Partner Interactions Severely Impair DNA Replication and Repair” (PLoS Biology, 2010).
Each block holds one binder with its values, some of them ahead of it.

Legend:
[1] = biological target: T1, pol30-Rad30E2 of the mutant strain (yeast, UniProt P15873 1-258, IDCL DIDADFLKIEEL to DDDWDFLKILEL); experiment: ELISA; PCNA captured from crude yeast extract (3 mg/ml) on plates coated with anti-PCNA antibody; bound GFP-tagged partner detected by anti-GFP, normalised to the anti-His signal of PCNA; settings: partners not purified
T1 construct: PCNA (POL30), yeast; source: yeast, sole source of PCNA under the native POL30 promoter, in crude cell extract
T1 sequence: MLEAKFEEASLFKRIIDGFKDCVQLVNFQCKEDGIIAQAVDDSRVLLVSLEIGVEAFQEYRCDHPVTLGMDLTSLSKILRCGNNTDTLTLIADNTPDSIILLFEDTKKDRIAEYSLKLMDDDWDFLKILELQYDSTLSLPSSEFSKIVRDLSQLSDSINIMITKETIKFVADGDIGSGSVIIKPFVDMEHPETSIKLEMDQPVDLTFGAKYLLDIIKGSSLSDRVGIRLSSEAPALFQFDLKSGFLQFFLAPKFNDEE

[2] = biological target: T2, pol30-Rad30E2 (yeast, UniProt P15873 1-258, IDCL DIDADFLKIEEL to DDDWDFLKILEL); experiment: two-hybrid; quantitative Y2H: generation time of the YRG2 strains in liquid SC-Leu-Trp-His, given relative to cells expressing WT PCNA; average of at least 3 experiments; settings: partners not purified
T2 construct: PCNA (POL30), yeast; source: yeast two-hybrid fusion (pAD-GAL4, strain YRG2)
T2 sequence: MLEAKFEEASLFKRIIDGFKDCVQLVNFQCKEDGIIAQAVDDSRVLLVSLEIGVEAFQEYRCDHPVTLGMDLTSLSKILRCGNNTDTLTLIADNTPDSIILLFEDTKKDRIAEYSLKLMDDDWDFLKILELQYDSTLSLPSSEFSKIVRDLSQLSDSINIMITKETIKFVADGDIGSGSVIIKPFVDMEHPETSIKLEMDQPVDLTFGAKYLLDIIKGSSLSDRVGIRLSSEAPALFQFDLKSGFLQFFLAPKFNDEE

[3] = biological target: T3, pol30-Rad30E9 (yeast, UniProt P15873 1-258, IDCL DIDADFLKIEEL to DNDWDFLKIDEL); experiment: as above; settings: partners not purified
T3 construct: PCNA (POL30), yeast; also called Pol30-Rad30E9p; source: yeast two-hybrid fusion (pAD-GAL4, strain YRG2)
T3 sequence: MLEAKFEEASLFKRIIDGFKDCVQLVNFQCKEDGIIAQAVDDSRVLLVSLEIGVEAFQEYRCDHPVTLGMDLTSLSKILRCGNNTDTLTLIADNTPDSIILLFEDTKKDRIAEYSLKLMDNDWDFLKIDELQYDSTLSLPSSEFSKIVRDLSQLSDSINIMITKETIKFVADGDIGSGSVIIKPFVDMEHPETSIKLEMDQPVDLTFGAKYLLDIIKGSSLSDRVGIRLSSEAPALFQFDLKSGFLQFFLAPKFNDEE

[4] = biological target: T4, pol30-Rad27L1 (yeast, UniProt P15873 1-258, IDCL DIDADFLKIEEL to D––VDILKIGEL); experiment: two-hybrid; pAD-GAL4-PCNA WT or mutant (called bait) and pBD-GAL4-partner (called prey) in strain YRG2; 10-fold serial dilutions spotted on SC-Leu-Trp-His plates, 30°C, 3 d; growth similar to WT PCNA is denoted 1; settings: partners not purified
T4 construct: PCNA (POL30), yeast; two residues after the first aspartic acid of the IDCL are deleted; source: yeast two-hybrid fusion (pAD-GAL4, strain YRG2)
T4 sequence: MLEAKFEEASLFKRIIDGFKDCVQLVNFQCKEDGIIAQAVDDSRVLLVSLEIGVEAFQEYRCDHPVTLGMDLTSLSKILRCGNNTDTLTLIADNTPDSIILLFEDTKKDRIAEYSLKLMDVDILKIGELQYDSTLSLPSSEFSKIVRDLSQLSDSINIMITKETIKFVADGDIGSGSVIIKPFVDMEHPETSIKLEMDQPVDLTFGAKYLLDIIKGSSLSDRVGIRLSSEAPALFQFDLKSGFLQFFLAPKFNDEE

[5] = biological target: T5, pol30-Rad27L2 (yeast, UniProt P15873 1-258, IDCL DIDADFLKIEEL to D––VDTLKITEL); experiment: as above; settings: partners not purified
T5 construct: PCNA (POL30), yeast; two residues after the first aspartic acid of the IDCL are deleted; source: yeast two-hybrid fusion (pAD-GAL4, strain YRG2)
T5 sequence: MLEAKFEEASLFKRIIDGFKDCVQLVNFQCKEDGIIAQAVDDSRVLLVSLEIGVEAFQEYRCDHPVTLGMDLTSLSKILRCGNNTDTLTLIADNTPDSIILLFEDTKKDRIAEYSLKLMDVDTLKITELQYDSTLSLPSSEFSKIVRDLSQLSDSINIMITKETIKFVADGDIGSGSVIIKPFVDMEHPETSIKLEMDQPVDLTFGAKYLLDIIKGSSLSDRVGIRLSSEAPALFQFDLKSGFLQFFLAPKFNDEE

[6] = biological target: T6, pol30-Rad27E6 of the mutant strain (yeast, UniProt P15873 1-258, IDCL DIDADFLKIEEL to DGDYDILKIREL); experiment: ELISA; PCNA captured from crude yeast extract (3 mg/ml) on plates coated with anti-PCNA antibody; bound GFP-tagged partner detected by anti-GFP, normalised to the anti-His signal of PCNA; settings: partners not purified
T6 construct: PCNA (POL30), yeast; source: yeast, sole source of PCNA under the native POL30 promoter, in crude cell extract
T6 sequence: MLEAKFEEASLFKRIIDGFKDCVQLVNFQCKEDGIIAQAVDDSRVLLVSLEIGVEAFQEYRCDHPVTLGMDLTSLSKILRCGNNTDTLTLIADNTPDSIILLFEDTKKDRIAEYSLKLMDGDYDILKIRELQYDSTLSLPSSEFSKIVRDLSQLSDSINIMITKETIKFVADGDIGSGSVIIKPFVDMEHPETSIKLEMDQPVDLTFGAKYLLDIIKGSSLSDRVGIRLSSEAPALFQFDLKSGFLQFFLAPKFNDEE

[7] = biological target: the molecule itself; experiment: SEC; Superdex 200 10/300 GL, activity buffer (300 mM NaCl, 50 mM Tris-HCl, pH 8), monomer concentrations of 3–8 µM

B3: GFP-tagged Rad27 (natural protein, yeast, UniProt P26793 1-382, looked up)
chain: MGIKGLNAIISEHVPSAIRKSDIKSFFGRKVAIDASMSLYQFLIAVRQQDGGQLTNEAGETTSHLMGMFYRTLRMIDNGIKPCYVFDGKPPDLKSHELTKRSSRRVETEKKLAEATTELEKMKQERRLVKVSKEHNEEAQKLLGLMGIPYIIAPTEAEAQCAELAKKGKVYAAASEDMDTLCYRTPFLLRHLTFSEAKKEPIHEIDTELVLRGLDLTIEQFVDLCIMLGCDYCESIRGVGPVTALKLIKTHGSIEKIVEFIESGESNNTKWKIPEDWPYKQARMLFLDPEVIDGNEINLKWSPPKEKELIEYLCDDKKFSEERVKSGISRLKKGLKSGIQGRLDGFFQVVPKTKEQLAAAAKRAQENKKLNKNKNKVTKGRR
notes: Rad27, yeast, tagged at its natural locus; source: yeast, GFP-tagged at the natural locus, in crude cell extract; not shown: GFP, C-terminal, kept
increase in the amount of complex relative to the POL30 strain [6]: 17%

B4: proliferating cell nuclear antigen (PCNA), 6×Histidine-tagged (natural protein, yeast)
chain: MLEAKFEEASLFKRIIDGFKDCVQLVNFQCKEDGIIAQAVDDSRVLLVSLEIGVEAFQEYRCDHPVTLGMDLTSLSKILRCGNNTDTLTLIADNTPDSIILLFEDTKKDRIAEYSLKLMDIDADFLKIEELQYDSTLSLPSSEFSKIVRDLSQLSDSINIMITKETIKFVADGDIGSGSVIIKPFVDMEHPETSIKLEMDQPVDLTFGAKYLLDIIKGSSLSDRVGIRLSSEAPALFQFDLKSGFLQFFLAPKFNDEE
notes: PCNA (POL30), yeast; cloned into pET28 by NdeI and XhoI; also called WT PCNA; Pol30p; source: E. coli BL21, purified (Ni-NTA)
stoichiometry N [7]: 3

Next, values leading:

increase in the amount of complex relative to the POL30 strain [1]: 70%
B1: GFP-tagged Rad30 (natural protein, yeast, UniProt Q04049 1-632, looked up)
chain: MSKFTWKELIQLGSPSKAYESSLACIAHIDMNAFFAQVEQMRCGLSKEDPVVCVQWNSIIAVSYAARKYGISRMDTIQEALKKCSNLIPIHTAVFKKGEDFWQYHDGCGSWVQDPAKQISVEDHKVSLEPYRRESRKALKIFKSACDLVERASIDEVFLDLGRICFNMLMFDNEYELTGDLKLKDALSNIREAFIGGNYDINSHLPLIPEKIKSLKFEGDVFNPEGRDLITDWDDVILALGSQVCKGIRDSIKDILGYTTSCGLSSTKNVCKLASNYKKPDAQTIVKNDCLLDFLDCGKFEITSFWTLGGVLGKELIDVLDLPHENSIKHIRETWPDNAGQLKEFLDAKVKQSDYDRSTSNIDPLKTADLAEKLFKLSRGRYGLPLSSRPVVKSMMSNKNLRGKSCNSIVDCISWLEVFCAELTSRIQDLEQEYNKIVIPRTVSISLKTKSYEVYRKSGPVAYKGINFQSHELLKVGIKFVTDLDIKGKNKSYYPLTKLSMTITNFDIIDLQKTVVDMFGNQVHTFKSSAGKEDEEKTTSSKADEKTPKLECCKYQVTFTDQKALQEHADYHLALKLSEGLNGAEESSKNLSFGEKRLLFSRKRPNSQHTATPQKKQVTSSKNILSFFTRKK
notes: Rad30, yeast, tagged at its natural locus; source: yeast, GFP-tagged at the natural locus, in crude cell extract; not shown: GFP, C-terminal, kept

fold change in affinity relative to WT PCNA (Y2H generation time) [2]: 1.4 fold
fold change in affinity relative to WT PCNA (Y2H generation time) [3]: 1.6 fold
fold change in affinity relative to WT PCNA (Y2H) [4]: 0.4 fold
fold change in affinity relative to WT PCNA (Y2H) [5]: 0.5 fold
B2: Rad30 (natural protein, yeast, UniProt Q04049 1-632, looked up)
chain: MSKFTWKELIQLGSPSKAYESSLACIAHIDMNAFFAQVEQMRCGLSKEDPVVCVQWNSIIAVSYAARKYGISRMDTIQEALKKCSNLIPIHTAVFKKGEDFWQYHDGCGSWVQDPAKQISVEDHKVSLEPYRRESRKALKIFKSACDLVERASIDEVFLDLGRICFNMLMFDNEYELTGDLKLKDALSNIREAFIGGNYDINSHLPLIPEKIKSLKFEGDVFNPEGRDLITDWDDVILALGSQVCKGIRDSIKDILGYTTSCGLSSTKNVCKLASNYKKPDAQTIVKNDCLLDFLDCGKFEITSFWTLGGVLGKELIDVLDLPHENSIKHIRETWPDNAGQLKEFLDAKVKQSDYDRSTSNIDPLKTADLAEKLFKLSRGRYGLPLSSRPVVKSMMSNKNLRGKSCNSIVDCISWLEVFCAELTSRIQDLEQEYNKIVIPRTVSISLKTKSYEVYRKSGPVAYKGINFQSHELLKVGIKFVTDLDIKGKNKSYYPLTKLSMTITNFDIIDLQKTVVDMFGNQVHTFKSSAGKEDEEKTTSSKADEKTPKLECCKYQVTFTDQKALQEHADYHLALKLSEGLNGAEESSKNLSFGEKRLLFSRKRPNSQHTATPQKKQVTSSKNILSFFTRKK
notes: Rad30 (DNA polymerase), yeast; also called pBD-Rad30; source: yeast two-hybrid fusion (pBD-GAL4, strain YRG2)
